Test results: patent US9469674B2 (HAINAN UNIVERSITY, dated 2016)
Entries after “also recorded” stand apart in the source; their conditions may differ. Where a SMILES comes first, the peptide text is derived from it. Bridges are numbered along the chain shown (N, C = ends). Where no end group is shown, it is not given here.

Experiments:
α3β2 nAChR = α3β2 nAChR (Rattus norvegicus, UniProt P04757+P12390); experiment: cell-based; format: cell-based
human α6/α3β2β3 nAChR = human α6/α3β2β3 nAChR (Homo sapiens, UniProt P17787+P32297+Q15825); experiment: cell-based; format: cell-based
α6/α3β2β3 nAChR = α6/α3β2β3 nAChR (Rattus norvegicus, UniProt P04757+P12390+P43143); experiment: cell-based; format: cell-based
α3β4 nAChR = α3β4 nAChR (Rattus norvegicus, UniProt P04757+P12392); experiment: cell-based; format: cell-based
α6/α3β4 nAChR = α6/α3β4 nAChR (Rattus norvegicus, UniProt P04757+P12392+P43143); experiment: cell-based; format: cell-based
other nAChRs subtypes = format: cell-based; conditions: read-out: IC50 on other nAChRs subtypes (no blocking activity)
α2β4 nAChR = α2β4 nAChR (Rattus norvegicus, UniProt P12389+P12392); experiment: cell-based; format: cell-based
α7 nAChR = α7 nAChR (Rattus norvegicus, UniProt Q05941); experiment: cell-based; format: cell-based
α4β4 nAChR = α4β4 nAChR (Rattus norvegicus, UniProt P09483+P12392); experiment: cell-based; format: cell-based
nAChRs = conditions: cited from earlier work
rat α6/α3β4 nAChR (rat) = rat α6/α3β4 nAChR (rat) (UniProt P12392)
[1] = target: rat α6/α3β2β3 nAChR (rat) (UniProt P12390)
rat α2β2 nAChR = rat α2β2 nAChR (rat, UniProt P12389); experiment: cell-based or functional assay
rat α3β2 nAChR = rat α3β2 nAChR (rat, UniProt P04757); experiment: cell-based or functional assay
rat α4β4 nAChR = rat α4β4 nAChR (rat, UniProt P09483); experiment: cell-based or functional assay
rat α7 nAChR = rat α7 nAChR (rat, UniProt Q05941); experiment: cell-based or functional assay
rat α3β4 nAChR = rat α3β4 nAChR (rat, UniProt P04757); experiment: cell-based or functional assay
rat α9α10 nAChR = rat α9α10 nAChR (rat, UniProt P43144); experiment: cell-based or functional assay
rat α4β2 nAChR = rat α4β2 nAChR (rat, UniProt P09483); experiment: cell-based or functional assay
rat α2β4 nAChR = rat α2β4 nAChR (rat, UniProt P12389); experiment: cell-based or functional assay

α6/α3β4 nAChR, sequence (P04757 whole entry, looked up): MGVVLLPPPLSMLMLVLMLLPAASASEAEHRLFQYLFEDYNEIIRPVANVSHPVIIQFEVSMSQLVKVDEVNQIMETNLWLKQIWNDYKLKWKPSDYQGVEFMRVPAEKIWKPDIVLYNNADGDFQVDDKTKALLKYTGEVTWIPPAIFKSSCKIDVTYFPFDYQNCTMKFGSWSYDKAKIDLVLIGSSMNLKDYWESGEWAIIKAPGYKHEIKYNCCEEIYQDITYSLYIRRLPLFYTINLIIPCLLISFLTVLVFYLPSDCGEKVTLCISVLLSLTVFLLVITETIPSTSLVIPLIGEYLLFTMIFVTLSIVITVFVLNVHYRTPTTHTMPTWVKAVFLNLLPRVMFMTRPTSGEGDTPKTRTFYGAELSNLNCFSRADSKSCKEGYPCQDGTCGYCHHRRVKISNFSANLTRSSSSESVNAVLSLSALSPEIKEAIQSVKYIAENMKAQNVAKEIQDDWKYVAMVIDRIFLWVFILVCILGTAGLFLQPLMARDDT
α6/α3β4 nAChR, sequence (P12392 whole entry, looked up): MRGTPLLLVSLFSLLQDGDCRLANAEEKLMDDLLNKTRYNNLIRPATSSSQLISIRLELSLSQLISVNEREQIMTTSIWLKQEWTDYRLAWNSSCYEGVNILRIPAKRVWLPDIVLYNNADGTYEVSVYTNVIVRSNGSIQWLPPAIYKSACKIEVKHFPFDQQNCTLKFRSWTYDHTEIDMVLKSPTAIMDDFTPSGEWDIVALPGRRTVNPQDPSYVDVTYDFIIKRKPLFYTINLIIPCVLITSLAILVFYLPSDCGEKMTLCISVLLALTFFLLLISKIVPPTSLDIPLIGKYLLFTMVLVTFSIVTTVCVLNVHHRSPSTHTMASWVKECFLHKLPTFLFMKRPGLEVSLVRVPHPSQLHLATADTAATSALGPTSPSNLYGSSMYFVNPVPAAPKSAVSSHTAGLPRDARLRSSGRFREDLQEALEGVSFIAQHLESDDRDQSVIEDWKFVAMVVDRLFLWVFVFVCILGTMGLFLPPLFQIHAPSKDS
α6/α3β4 nAChR, sequence (P43143 whole entry, looked up): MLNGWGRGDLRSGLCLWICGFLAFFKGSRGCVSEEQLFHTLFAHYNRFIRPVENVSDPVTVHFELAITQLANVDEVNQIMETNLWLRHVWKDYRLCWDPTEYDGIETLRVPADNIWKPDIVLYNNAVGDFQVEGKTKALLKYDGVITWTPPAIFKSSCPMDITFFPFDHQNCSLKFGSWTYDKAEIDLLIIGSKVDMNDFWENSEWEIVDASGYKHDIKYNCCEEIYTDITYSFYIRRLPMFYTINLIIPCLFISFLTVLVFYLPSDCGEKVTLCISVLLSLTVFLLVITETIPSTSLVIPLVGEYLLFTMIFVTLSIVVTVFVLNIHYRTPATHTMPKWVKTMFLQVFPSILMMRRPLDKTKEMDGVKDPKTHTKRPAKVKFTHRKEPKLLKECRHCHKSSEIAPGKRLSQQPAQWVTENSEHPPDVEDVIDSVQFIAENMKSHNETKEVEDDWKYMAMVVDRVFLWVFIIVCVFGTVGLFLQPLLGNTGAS
α6/α3β2β3 nAChR, sequence (P04757 whole entry, looked up): as the sequence (P04757 whole entry, looked up) above
α6/α3β2β3 nAChR, sequence (P12390 whole entry, looked up): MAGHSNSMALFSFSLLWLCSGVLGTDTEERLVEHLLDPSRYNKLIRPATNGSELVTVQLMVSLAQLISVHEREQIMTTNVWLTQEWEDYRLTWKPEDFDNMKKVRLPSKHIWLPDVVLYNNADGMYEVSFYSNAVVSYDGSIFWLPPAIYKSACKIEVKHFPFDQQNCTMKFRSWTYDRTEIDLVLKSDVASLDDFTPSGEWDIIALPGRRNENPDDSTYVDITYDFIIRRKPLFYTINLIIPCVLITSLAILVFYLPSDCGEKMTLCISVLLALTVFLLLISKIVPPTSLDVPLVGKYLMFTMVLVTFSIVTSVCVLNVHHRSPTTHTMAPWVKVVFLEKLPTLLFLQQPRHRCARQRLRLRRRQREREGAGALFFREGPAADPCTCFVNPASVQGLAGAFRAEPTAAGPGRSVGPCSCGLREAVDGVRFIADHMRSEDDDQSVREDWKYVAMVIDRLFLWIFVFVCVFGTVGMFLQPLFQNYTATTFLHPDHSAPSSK
α6/α3β2β3 nAChR, sequence (P43143 whole entry, looked up): as the sequence (P43143 whole entry, looked up) above
α7 nAChR, sequence (Q05941 23-502 limits assumed): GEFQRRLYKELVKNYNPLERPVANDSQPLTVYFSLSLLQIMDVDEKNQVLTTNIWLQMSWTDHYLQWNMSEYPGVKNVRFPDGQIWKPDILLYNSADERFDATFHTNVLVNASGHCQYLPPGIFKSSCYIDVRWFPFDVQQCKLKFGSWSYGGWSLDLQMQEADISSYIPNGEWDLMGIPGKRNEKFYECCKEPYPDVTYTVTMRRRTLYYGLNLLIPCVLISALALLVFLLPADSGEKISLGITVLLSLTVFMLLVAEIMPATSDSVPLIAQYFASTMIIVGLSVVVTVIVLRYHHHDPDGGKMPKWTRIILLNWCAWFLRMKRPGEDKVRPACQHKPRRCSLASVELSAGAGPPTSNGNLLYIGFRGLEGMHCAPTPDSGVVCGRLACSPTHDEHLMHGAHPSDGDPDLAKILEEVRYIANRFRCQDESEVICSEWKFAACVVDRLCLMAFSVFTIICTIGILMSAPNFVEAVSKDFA
human α6/α3β2β3 nAChR, sequence (P17787 whole entry, looked up): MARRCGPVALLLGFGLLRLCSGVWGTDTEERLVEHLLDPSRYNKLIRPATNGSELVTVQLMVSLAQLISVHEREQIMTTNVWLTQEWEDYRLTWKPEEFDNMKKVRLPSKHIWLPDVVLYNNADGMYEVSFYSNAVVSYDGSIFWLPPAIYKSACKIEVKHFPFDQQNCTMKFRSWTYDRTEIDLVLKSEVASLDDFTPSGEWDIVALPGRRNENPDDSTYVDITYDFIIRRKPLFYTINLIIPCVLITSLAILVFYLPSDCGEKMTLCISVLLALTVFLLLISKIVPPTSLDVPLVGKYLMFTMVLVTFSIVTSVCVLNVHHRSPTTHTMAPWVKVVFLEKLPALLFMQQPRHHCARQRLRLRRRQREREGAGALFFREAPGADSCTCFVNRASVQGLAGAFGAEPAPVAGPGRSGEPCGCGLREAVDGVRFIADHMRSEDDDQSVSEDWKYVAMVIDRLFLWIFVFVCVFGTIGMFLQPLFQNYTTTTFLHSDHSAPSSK
human α6/α3β2β3 nAChR, sequence (P32297 whole entry, looked up): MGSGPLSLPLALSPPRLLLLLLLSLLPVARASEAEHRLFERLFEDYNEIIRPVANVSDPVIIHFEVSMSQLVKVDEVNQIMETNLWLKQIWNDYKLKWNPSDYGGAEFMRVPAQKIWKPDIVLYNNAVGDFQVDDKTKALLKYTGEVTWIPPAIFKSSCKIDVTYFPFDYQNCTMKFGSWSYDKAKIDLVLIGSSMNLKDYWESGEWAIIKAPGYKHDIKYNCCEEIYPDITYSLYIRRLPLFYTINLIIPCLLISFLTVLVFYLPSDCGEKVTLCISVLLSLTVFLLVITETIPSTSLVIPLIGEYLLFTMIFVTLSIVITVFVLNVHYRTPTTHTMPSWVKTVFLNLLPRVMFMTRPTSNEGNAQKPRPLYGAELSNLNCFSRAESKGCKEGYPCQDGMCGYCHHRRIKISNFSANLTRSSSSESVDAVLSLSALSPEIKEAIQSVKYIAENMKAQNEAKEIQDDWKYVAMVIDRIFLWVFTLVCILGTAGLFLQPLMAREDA
human α6/α3β2β3 nAChR, sequence (Q15825 whole entry, looked up): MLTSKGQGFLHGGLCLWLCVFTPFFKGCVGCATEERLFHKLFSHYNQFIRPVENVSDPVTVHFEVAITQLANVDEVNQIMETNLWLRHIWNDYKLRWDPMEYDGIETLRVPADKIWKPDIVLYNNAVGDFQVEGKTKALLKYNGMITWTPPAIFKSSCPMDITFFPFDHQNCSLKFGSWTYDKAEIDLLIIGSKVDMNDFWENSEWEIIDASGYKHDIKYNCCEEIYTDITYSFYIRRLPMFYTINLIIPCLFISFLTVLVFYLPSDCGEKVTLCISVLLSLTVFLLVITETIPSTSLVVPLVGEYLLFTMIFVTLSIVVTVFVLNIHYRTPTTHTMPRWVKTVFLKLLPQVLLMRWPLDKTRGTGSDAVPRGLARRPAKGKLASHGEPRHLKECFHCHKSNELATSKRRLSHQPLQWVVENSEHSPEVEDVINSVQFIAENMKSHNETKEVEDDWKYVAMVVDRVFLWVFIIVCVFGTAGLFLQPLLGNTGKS

Row | Molecule | blocking of ACh-gated current (α3β4 nAChR) | IC50 (other nAChRs subtypes) | nAChRs selectivity (nAChRs) | IC50 (half-blocking dose) on ACh-gated current (rat α6/α3β4 nAChR (rat)) | IC50 (half-blocking dose) on ACh-gated current [1] | IC50 (half-blocking dose) on ACh-gated current (rat α2β2 nAChR) | IC50 (half-blocking dose) on ACh-gated current (rat α3β2 nAChR) | IC50 (half-blocking dose) on ACh-gated current (rat α4β4 nAChR) | IC50 (half-blocking dose) on ACh-gated current (rat α7 nAChR) | IC50 (half-blocking dose) on ACh-gated current (rat α3β4 nAChR) | IC50 (half-blocking dose) on ACh-gated current (rat α9α10 nAChR) | IC50 (half-blocking dose) on ACh-gated current (rat α4β2 nAChR) | IC50 (half-blocking dose) on ACh-gated current (rat α2β4 nAChR) | other results
1 | CC(C)C[C@@H]1NC(=O)[C@H](CC(=O)O)NC(=O)[C@@H]2CCCN2C(=O)[C@H](Cc2c[nH]cn2)NC(=O)[C@H](CCCCN)NC(=O)[C@H](CC(N)=O)NC(=O)[C@H](CCCNC(=N)N)NC(=O)[C@@H]2CSSC[C@H](NC(=O)CN)C(=O)N[C@@H](CSSC[C@@H](C(N)=O)NC1=O)C(=O)N[C@@H](CO)C(=O)N[C@@H](CC(=O)O)C(=O)N1CCC[C@H]1C(=O)N1CCC[C@H]1C(=O)N2 [TxIB] (H-GCCSDPPCRNKHPDLC-NH2; disulfide 2-8, 3-16) | totally does not block; also recorded: no blocking activity | > 10 µM | – | – | – | – | – | – | – | – | – | – | – | blocking of ACh-gated current (α3β2 nAChR): totally does not block; also recorded: no blocking activity; blocking activity on human α6/α3β2β3 nAChR (human α6/α3β2β3 nAChR): blocking activity similar to those for rat α6/α3β2β3 nAChR; Hill slope of dose-response curve (α6/α3β2β3 nAChR): 0.51 (0.41-0.60); Ratio of half-blocking dose (IC50) between TxIB(G) and TxIB (α6/α3β2β3 nAChR): 1; blocking of ACh-gated current (α6/α3β2β3 nAChR): specifically blocked; also recorded: almost total blocked; blocking of ACh-gated current (α6/α3β4 nAChR): totally does not block; also recorded: no blocking activity
2 | CC[C@H](C)[C@@H]1NC(=O)[C@@H]2CCCN2C(=O)[C@H](CO)NC(=O)[C@H](CCSC)NC(=O)[C@H](C)NC(=O)[C@H](CO)NC(=O)[C@@H]2CSSC[C@H](NC(=O)CN)C(=O)N[C@@H](CSSC[C@@H](C(N)=O)NC1=O)C(=O)N[C@@H](CO)C(=O)N[C@@H](Cc1c[nH]cn1)C(=O)N1CCC[C@H]1C(=O)N[C@@H](C(C)C)C(=O)N2 [TxIC] | specifically blocked; also recorded: completely blocked | > 10 µM | – | – | – | – | – | – | – | – | – | – | – | Hill slope of dose-response curve (α2β4 nAChR): 0.20 (1.48-2.42); blocking of ACh-gated current (α7 nAChR): totally does not block; also recorded: no blocking activity; blocking of ACh-gated current (α4β4 nAChR): totally does not block; also recorded: no blocking activity; Hill slope of dose-response curve (α3β4 nAChR): 0.19 (0.66-1.44); Hill slope of dose-response curve (α6/α3β4 nAChR): 0.26 (0.73-1.87)
3 | NGRCC-HPACGKHFN--C* [Ac1.1a] | – | – | Muscle nAChR | – | – | – | – | – | – | – | – | – | – | –
4 | RTCCSRPTCRMEYPELC*grr [SrIA/SrIB] | – | – | Muscle nAChR/α4β2 | – | – | – | – | – | – | – | – | – | – | –
5 | GCCSDPPCRNKHPDLCG (not fully specified; ends and bridges not checked) [α-conotoxin TxIB/Txd4(G)] | – | – | – | > 10 µM | 0.247 µM | > 10 µM | > 10 µM | > 10 µM | > 10 µM | > 10 µM | > 10 µM | > 10 µM | > 10 µM | –
6 | GCCSDPPCRNKHPDLC (not fully specified; ends and bridges not checked) [α-conotoxin TxIB/Txd4] | – | – | – | > 10 µM | 0.0284 µM | > 10 µM | > 10 µM | > 10 µM | > 10 µM | > 10 µM | > 10 µM | > 10 µM | > 10 µM | –
